According to patent publication US20040143095A1:

Assays:
[1] = biological target: mouse CRF receptor type 2β (mouse) (UniProt Q60748); assay: radioligand displacement ([125I-Tyr0,Glu1,Nle17]-sauvagine), CHO membranes
[2] = biological target: rat CRF receptor type 2α (rat) (UniProt P47866); assay: as above
Chain of rat CRF receptor type 2α (rat) (P47866 20-411): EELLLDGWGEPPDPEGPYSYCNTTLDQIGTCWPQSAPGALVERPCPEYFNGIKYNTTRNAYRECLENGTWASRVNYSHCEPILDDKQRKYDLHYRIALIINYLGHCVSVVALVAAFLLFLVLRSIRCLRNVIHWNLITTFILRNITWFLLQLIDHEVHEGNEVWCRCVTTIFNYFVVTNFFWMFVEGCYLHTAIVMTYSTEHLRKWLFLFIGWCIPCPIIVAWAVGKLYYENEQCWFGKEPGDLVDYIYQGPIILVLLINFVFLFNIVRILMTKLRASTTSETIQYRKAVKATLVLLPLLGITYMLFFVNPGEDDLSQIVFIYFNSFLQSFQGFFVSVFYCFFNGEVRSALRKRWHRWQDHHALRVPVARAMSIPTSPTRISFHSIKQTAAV

Work on “CRF (rat/human) (from UniProt P06850 154-194) (peptide)” yielded a Ki [1] of 5.2 nM and a Ki [2] of 10.1 nM.
“Urocortin (rat) (from UniProt P55090 81-120) (peptide)” was tested, and the Ki [1] was 0.62 nM and the Ki [2] was 2.2 nM.
